The record followed here is paper PMC12136191, “Structural basis for mTORC1 regulation by the CASTOR1-GATOR2 complex” (Research Square, 2025).

B1: MIOS, subunit within purified GATOR2 (natural protein)
chain: MSGTKPDILWAPHHVDRFVVCDSELSLYHVESTVNSELKAGSLRLSEDSAATLLSINSDTPYMKCVAWYLNYDPECLLAVGQANGRVVLTSLGQDHNSKFKDLIGKEFVPKHARQCNTLAWNPLDSNWLAAGLDKHRADFSVLIWDICSKYTPDIVPMEKVKLSAGETETTLLVTKPLYELGQNDACLSLCWLPRDQKLLLAGMHRNLAIFDLRNTSQKMFVNTKAVQGVTVDPYFHDRVASFYEGQVAIWDLRKFEKPVLTLTEQPKPLTKVAWCPTRTGLLATLTRDSNIIRLYDMQHTPTPIGDETEPTIIERSVQPCDNYIASFAWHPTSQNRMIVVTPNRTMSDFTVFERISLAWSPITSLMWACGRHLYECTEEENDNSLEKDIATKMRLRALSRYGLDTEQVWRNHILAGNEDPQLKSLWYTLHFMKQYTEDMDQKSPGNKGSLVYAGIKSIVKSSLGMVESSRHNWSGLDKQSDIQNLNEERILALQLCGWIKKGTDVDVGPFLNSLVQEGEWERAAAVALFNLDIRRAIQILNEGASSEKGDLNLNVVAMALSGYTDEKNSLWREMCSTLRLQLNNPYLCVMFAFLTSETGSYDGVLYENKVAVRDRVAFACKFLSDTQLNRYIEKLTNEMKEAGNLEGILLTGLTKDGVDLMESYVDRTGDVQTASYCMLQGSPLDVLKDERVQYWIENYRNLLDAWRFWHKRAEFDIHRSKLDPSSKPLAQVFVSCNFCGKSISYSCSAVPHQGRGFSQYGVSGSPTKSKVTSCPGCRKPLPRCALCLINMGTPVSSCPGGTKSDEKVDLSKDKKLAQFNNWFTWCHNCRHGGHAGHMLSWFRDHAECPVSACTCKCMQLDTTGNLVPAETVQP
notes: MIOS, subunit of GATOR2; codon optimized synthetic DNA; The MIOS chain of m1, written alone for the pairs that touch in the structure; also called front face MIOS; source: HEK293-GNTI cells, co-expressed with the other GATOR2 subunits, purified as part of GATOR2
B2: CASTOR1 S111A/D304A (apo-locked mutant) (natural protein)
chain: MELHILEHRVRVLSVARPGLWLYTHPLIKLLFLPRRSRCKFFSLTETPEDYTLMVDEEGFKELPPSEFLQVAEATWLVLNVSSHSGAAVQAAGVTKIARSVIAPLAEHHVAVLMLSTYQTDFILVREQDLSVVIHTLAQEFDIYREVGGEPVPVTRDDSSNGFPRTQHGPSPTVHPIQSPQNRFCVLTLDPETLPAIATTLIDVLFYSHSTPKEAASSSPEPSSITFFAFSLIEGYISIVMDAETQKKFPSDLLLTSSSGELWRMVRIGGQPLGFDECGIVAQIAGPLAAADISAYYISTFNFAHALVPEDGIGSVIEVLQRRQEGLAS
notes: CASTOR1 (arginine sensor) with S111A and D304A; codon optimized synthetic DNA; Homodimer in the structure; also called CASTOR1^apo; 6X-His-CASTOR1^apo; source: E. coli BL21(DE3), pET-28a+, purified (Ni-NTA, Superdex 200 gel filtration)

Data set [1] concerns the molecule itself. As to the kind of experiment: cryo-EM structure; purified GATOR2 at 0.45 mg/mL with 3-fold molar excess of CASTOR1^apo, 45 minutes on ice, frozen on grids; no Arg; Titan Krios.
Data set [2] deals with B1. Described as above. To be noted: both partners purified.

Turning to B1, the binding result in data set [1] was “binds”.

As to B2, the binding result in data set [2] and in data set [1] was “binds” in each case.
